Experimental data reported in PMC6125214 (Cancer immunology research, 2018).

B1: JML-1 Fab (Fab, V domains shown)
VH: KVQLLESGGGLVQPGRSLRLSCAASGFTFDDYGMHWVRQAPGKGLEWVSGISWNSGSIGYADSVKGRFTISRDNSKNTLYLQMNSLRAEDTAVYYCARGGQTIDIWGQGTMVTVSS
VL: not shown
B2: JML-1 IgG1 (antibody, V domains shown)
VH: B1 VH
VL: not shown

How the values were obtained:
[1] = biological target: human Siglec-6-Fc (Homo sapiens, UniProt O43699); assay: SPR
[2] = biological target: human CD22-Fc (Homo sapiens, UniProt P20273); assay: ELISA
[3] = biological target: human CD33-Fc (Homo sapiens, UniProt P20138); assay: ELISA
[4] = biological target: human Siglec-8-Fc (Homo sapiens, UniProt Q9NYZ4); assay: ELISA
human Siglec-8-Fc, sequence (Q9NYZ4 17-363): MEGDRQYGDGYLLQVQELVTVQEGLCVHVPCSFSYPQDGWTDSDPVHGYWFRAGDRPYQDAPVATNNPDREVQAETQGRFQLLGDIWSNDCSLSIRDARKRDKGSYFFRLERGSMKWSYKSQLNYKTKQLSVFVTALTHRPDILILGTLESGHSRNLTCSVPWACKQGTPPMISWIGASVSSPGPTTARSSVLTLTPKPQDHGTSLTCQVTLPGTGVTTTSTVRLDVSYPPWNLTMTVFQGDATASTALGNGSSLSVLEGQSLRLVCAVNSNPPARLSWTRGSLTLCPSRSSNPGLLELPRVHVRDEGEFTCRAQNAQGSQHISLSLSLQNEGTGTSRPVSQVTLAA

human CD22-Fc, sequence (P20273 20-687): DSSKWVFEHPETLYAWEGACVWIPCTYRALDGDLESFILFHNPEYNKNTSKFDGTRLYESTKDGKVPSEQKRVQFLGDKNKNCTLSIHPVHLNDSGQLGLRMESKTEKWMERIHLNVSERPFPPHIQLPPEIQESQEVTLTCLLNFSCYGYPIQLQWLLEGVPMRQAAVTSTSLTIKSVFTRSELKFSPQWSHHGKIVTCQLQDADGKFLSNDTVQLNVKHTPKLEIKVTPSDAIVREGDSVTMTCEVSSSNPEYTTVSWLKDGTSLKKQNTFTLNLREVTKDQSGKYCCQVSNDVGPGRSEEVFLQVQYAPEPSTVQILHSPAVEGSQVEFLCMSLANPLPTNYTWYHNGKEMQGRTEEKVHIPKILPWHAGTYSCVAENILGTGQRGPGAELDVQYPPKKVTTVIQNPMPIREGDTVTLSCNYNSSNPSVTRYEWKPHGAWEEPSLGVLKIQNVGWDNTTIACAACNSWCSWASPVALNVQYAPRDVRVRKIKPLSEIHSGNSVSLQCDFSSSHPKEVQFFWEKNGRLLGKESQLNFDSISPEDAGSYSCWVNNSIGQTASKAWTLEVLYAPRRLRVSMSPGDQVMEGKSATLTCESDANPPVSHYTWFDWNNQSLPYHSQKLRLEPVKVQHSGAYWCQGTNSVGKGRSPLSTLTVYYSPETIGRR
human Siglec-6-Fc, sequence (O43699 27-347): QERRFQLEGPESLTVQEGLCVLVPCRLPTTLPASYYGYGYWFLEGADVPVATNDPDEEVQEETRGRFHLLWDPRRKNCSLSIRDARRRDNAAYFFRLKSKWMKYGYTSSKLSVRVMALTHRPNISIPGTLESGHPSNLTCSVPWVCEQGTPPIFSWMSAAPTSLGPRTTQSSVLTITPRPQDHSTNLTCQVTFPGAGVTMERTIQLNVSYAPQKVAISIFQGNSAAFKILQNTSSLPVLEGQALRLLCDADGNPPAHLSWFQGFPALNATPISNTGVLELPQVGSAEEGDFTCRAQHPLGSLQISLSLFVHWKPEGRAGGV
human CD33-Fc, sequence (P20138 18-259): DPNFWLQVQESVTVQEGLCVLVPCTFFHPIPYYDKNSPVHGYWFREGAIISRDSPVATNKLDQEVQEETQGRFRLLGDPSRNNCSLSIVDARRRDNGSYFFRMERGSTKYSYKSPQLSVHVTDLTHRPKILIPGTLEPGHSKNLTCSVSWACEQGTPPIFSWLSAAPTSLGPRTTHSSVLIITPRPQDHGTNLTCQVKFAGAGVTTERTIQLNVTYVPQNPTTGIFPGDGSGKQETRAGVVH

Kd [1] | binding result [2] | binding result [3] | binding result [4] | Binder
2.8 nM | – | – | – | B1
– | no binding (tested: 1 μg/mL) | no binding (tested: 1 μg/mL) | no binding (tested: 1 μg/mL) | B2
